Results as given in the nanobody polyreactivity screen of Harvey et al. (2022).

Assay: yeast display, Sf9 membrane polyspecificity reagent, FACS + sequencing; frameworks hold sequencing errors
Outline: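 Polyreactivity labels are assigned by the sorting gate from which each nanobody was recovered. The gates were low and high (top ~1%), set on anti-HA fluorescence for expression and streptavidin fluorescence for reagent binding. Before sorting, galactose-induced (36–48 hours) yeast display cells were stained for 1 hour at 4 °C with 10% biotinylated, detergent-solubilized Sf9 membrane reagent.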

Sequence | polyreactivity (PSR sort gate)
QVQLVESGGGLVQAGGSLRLSCAASGRTFYFNGMGWYRQAPGQERELVARISRRGGSTYYADSVKGRFTISRDNAKNTVYLQMNSLKPEDTAVYYCNTANYLLYDWGQGTQVNVSS | high polyreactivity
QVQLVESGGGLVQAGGSLRLSCAASGFIFGTNAMGWYRQAPGKERELVASISSTGGSTYYADSVKGRFTISRDNAKNTVYLQMNSLKPEDTAVYYFSADPYPEYIRYLPGVDYWGQGTQVTVSS | low polyreactivity
QVQLVESGGGLVQAGGSLRLSCAASGSTFKTYAMGWYRQAPGKEREFVASISGSGGSTRYADSVKGRFTISRDNAKNTVYLQMNSLKPEDTAVYYCAARLQKPTNGKGVYYWGQGTQVTVSS | high polyreactivity
QVQLVESGGGLVQAGGSLRLSCAASGFTFPYYAVGWYRQAPGKERELVAAISKGGTRTYYADSVKGRFTISRDNAKNTVYLQMNSLKPEDTAVYYCAATRIYQEMDYWGQGTQVTVSS | high polyreactivity
QVQHVESGGGLVQAGGSLRLSCAASGGIYYQNAMGWYRQAPGKERELVAAISGRGGRTYYADSVKGRFTISRDNAKNTVYLQMNSLKPEDTAVYYCNADQATFSLYHEMDYWGQGTQVTVSS | low polyreactivity
QVQLVESGGGLVQAGGSLRISCAASGSTFDNYAMGSYRHAPGKERELVAVITQSGGITFYADSVKGRFTISRDNSKNTVYLQMNSLKPEDSAVYYCNVELDRSWYYYWGQGTQVTVSS | low polyreactivity
QVQLVESGGGLVQAGGSLRLSCAASASTFGSYAMGWYRQAPGKERELVAAISRAGSTYADSVKGRFTISRDNAKNTVYLQMNSLKTEDTAVYYCAKRDYALYYGYDYWGQGTQVTVSS | low polyreactivity
QVQLVESGGGLVQAGGSLRLSCAASGSIFANNAMGWYRQAPGKERELVAAISSSGGSTYYADSVKGRFTISRDNAKNTVYLQMNSLKPEDTAVYYCAARFYYGRRYSTSYDYWGQGTQVTVSS | high polyreactivity
QVQLVESGGGLVQAGGSLRLSCAASGFIFGWNAMGWYRQAPGKEREFVAAITSSGTSTYYADSVKGRFTISRDNAKNTVYLQMNSLKPEDTAVYYCATEGWPFYPARDYDYWGQGTQVTVSS | low polyreactivity
QVQLVESGGGLVQAGGSLRLSCAASGRTFYIYAMGWYRQAPGKLRQLVAVIRGSGGSTYYADSVKGRFTISRDNAKYTVYLQMNSQKPEDTAVYYCAARRYQYVWSLYNYWGQGTQVTVSS | high polyreactivity
QVQLVESGGGLVHAGGSLRLSCAASGIILDYNAMGWYRQAPGKERELVAAITWSGSSTFYADTVKGRYTISHDNSKNTVYLQMNSLKPEDTAVYYCNADYFWGTYANFDYWGQCTQVTVSS | low polyreactivity
QVQLVESGGGLVQAGGSLRLSCAASGSTFDSNDMGWYRQAPGKERELVAGITWSGASTYYADSVKGRFTISRDNAKNTVYLQMNSLKPEDTAVYYCAAGPWGTGHYVQGPVYYYRYDYWGQGTQVTVSS | low polyreactivity
QVQLVESGGGLVQAGGILRLSCAASGIIFGPNAMGWYRQAPGKERELVAAITSGGRTYYADSVKGRFTISRDNAKNTVYLHMNSLKPEDTAVYYCAARVWSWRSKYDYWGQGTQVTVSS | high polyreactivity
QVQLVESGGGLVQAGGSLRLSCAASGYSFYINVMGWYIQAPGKERELLAAISISGDSTYYSDSVKGRFTISRDNAKNTVYLQMNSLKPDDTALYYCAADTVSSWYYPLEDEYWGQGTQVTVSS | high polyreactivity
QVQLVESGGGLVQAGGSLRLRCAASGRTIGPYAMGWYRQEPRKERELVAAISWSGGSTYYADSVKGRFTISRDNAKNTVYLQMNSLKPVDTAVYFCAAVYYSHVYYWGQGTQVTVSS | high polyreactivity
QVQLVESGGGLVQAGGSLRLSCAASGGIFTNNAMGWYRQAPGKERELVAAITGSGASTYYADSVKGRFTISRDNAKNTVYLQMNSLKPEDTAVYYCAALSKYYAPLSRYDYWGQGTQVTVSS | high polyreactivity

Sequence | polyreactivity (PSR sort gate)
QVQLVESGGGLVQAGGSLRLSCAASGRTFRTNAMGWYRQAPGKERELVAAITSDGTYYADSVKGRFTISRDNAKNTVYLQMNSLKPEDTAVYYCNVDDRETRDDYWGQGTQVTVSS | low polyreactivity
QVQLVESGGGLVQAGGSLRLSCAASLSIFYVNAMGWYRQAPGKESELVAAISFSGGTTYYADSVKGRFTISRDNAKNTVYLQMNSLKPEDTAVYYCNTPSSREMDYWGQGTQVTVSS | low polyreactivity
QVQLVESGAGLVQAGGILRLSCAASGRIFQYNAMGWYRQAPGKEREWVAAIRRGGGSTYYADSVKGRFTISRDNAKNTVYLQMNSLKPEDTAVYYCAARRKRVSFYPEYDYWGQGTQVTVSS | low polyreactivity
QVQLVESGGGLVQAGGSLRISFAASGSTFDIYVMGWYRQAPGKERELVAAISRVGNTSYADSVKGRFTISRDNAKNTVYLQMNSLKPEDKAVYYCAADAPSWYDRQYDYWGKGTQVTVSS | low polyreactivity
QVQLVESGGGLVQAGGSLRLSCAASGRTFQLNAMGWYRQAPGKEREFVATISTGGGGTFYADSVKGRFTISRDNAKNTVYLQMNSLKPEDTAVYYCNAGGETYIFRDLRHDYWGQGTQVTVSS | low polyreactivity
QVQLVESGGGLVQAGGSLRLSCAASGSTFYYYVMGWYRQAPGKERELVAAISSGGHTNYADSVKGRFTISRDNAKNTVYLQMNILKPEDTAVYYCAAKPWRGTLLRYGYWGQGTQVTVSS | high polyreactivity
QVQLVESGGGLVQAGGSLRLSCAASGITFRLYAMGWYRQAPGKERELVAAISKRGGSTYYADSVKGRFTISRDNAKNTVYLPMNSLKPDDTAVYYCAADSGWEHRYDYWGQGTQVTVSS | high polyreactivity
QVQLVESGGGLVQAGGSLRLSCAASGRIFSHYAMGWYRQAPGKERELVAAINRSGGSTYYADSVKGRFTISRDNAKNTVYLQMNSLKPEDTAVYYCAATSLRRYGYNYWGQGTQVTVSS | high polyreactivity
QVQLVESGGGLVQAGGSLRLSCAASGRTLQIYVMGWYRQAPGKERELVASITGRGGSTYYADSVKGRFTISRDTAKNTVYLQMNSLKPEDTAVYYFARRYYRLDYWGQGTQVTVSS | high polyreactivity
HLQLVESGGGLVQAGGSLRLSCAASGSIFYYNAMGWYRQAPGKERELVASIRANGGNTYYADSVKGRFTISRDNAKNTVYLQMNSLKPEETAVYYCAKESRYAHLYYYWGQGTQVTVSS | low polyreactivity
QVQLVESGGGLVQAGGSLRLSCAASGSIFVNNAMGWYRQAPGKERELVAAISSRGGSTYYADSVKGRFTISRDNAKNTVYLQMNSLKPEDTAVYYCAAEYDGPYYSFYPEQRYYWGQGTLVTVSS | low polyreactivity
QVQLVESGGGLVQAGGSLRLSFAASGYIFYYNAMGWYRQAPGKERELVAAISRGGNTYYADSVKGRFTISRDNAKNTVYLQMNSLKPEDNAVYYFNARPPNKRYKYGYWGQGTQVTVSS | high polyreactivity
QVQLVESGGGLVQAGGSLRLSCAASGIIFKYNAMGRYRQAPGKEREFVAAITGSGGSTYYADSVKGRFTISRDNAKNTVYLQMYSLKPEDTAVYYCARPQWRDWYGYWGQGTQVTVSS | low polyreactivity
QVQLVESGGGLVQAGGSLRISCAASGSTFDYNAMGWDRQAPGKERELVAVISQSGTRTYYADSVKGRFTISRDNAKNTVYLQMNSLKPEDTAVYYCAARSPYSYRYDYWGQGTQVTVSS | high polyreactivity
HVQLVESGGGLVQAGGSLRLSCAASGFIFPENAMGWYRQAPGKERELVAAIRTGGSTYYADSVKGRFTISRDNAKNTVYLQMNSLKPEDTAVYYCAARFHYEKYSYWYFDEDYWGQGTQVTVSS | high polyreactivity
QVQLVESGGGLVQAGGSLRLSCAASGITFGSYAMGWYRQAPGKERELVAAIRWRGGNTYYADSVKGRFTISRDNAKNTVYLQMNSLKPEDTAVYYCAARRYGYRYDQPYSNDYWGQGTLVTVSS | low polyreactivity
